Laboratory results published in paper PMC10319874 (Scientific Reports, 2023).

B1: recombinant RgpA propeptide (rRgpA-PP) (domain or fragment)
chain: QQTELGRNPNVRLLESTQQSVTKVQFRMDNLKFTEVQTPKGMAQVPTYTEGVNLSEKGMPTLPILSRSLAVSDTREMKVEVVSSKFIEKKNVLIAPSKGMIMRNEDPKKIPYVYGKSYSQNKFFPGEIATLDDPFILRDVRGQVVNFAPLQYNPVTKTLRIYTEITVAVSETSEQGKNILNKKGTFAGFEDTYKRMFMNYEPGR
B2: recombinant RgpB propeptide (rRgpB-PP) (domain or fragment)
chain: QPAERGRNPQVRLLSAEQSMSKVQFRMDNLQFTGVQTSKGVAQVPTFTEGVNISEKGTPILPILSRSLAVSETRAMKVEVVSSKFIEKKDVLIAPSKGVISRAENPDQIPYVYGQSYNEDKFFPGEIATLSDPFILRDVRGQVVNFAPLQYNPVTKTLRIYTEIVVAVSETAEAGQNTISLVKNSTFTGFEDIYKSVFMNYEATR

Columns and labels:
[1] = molecular target: histidine-tagged monomeric RgpA (rRgpAH) (Porphyromonas gingivalis W50, UniProt P28784 228-658); assay: […], Tris buffer (50 mM Tris, 150 mM NaCl, 5 mM CaCl2, pH 8.0) […]; settings: both partners purified
[2] = molecular target: RgpB (Porphyromonas gingivalis, UniProt P95493 230-736); assay: as above; settings: both partners purified
Chain of RgpB (P95493 230-736): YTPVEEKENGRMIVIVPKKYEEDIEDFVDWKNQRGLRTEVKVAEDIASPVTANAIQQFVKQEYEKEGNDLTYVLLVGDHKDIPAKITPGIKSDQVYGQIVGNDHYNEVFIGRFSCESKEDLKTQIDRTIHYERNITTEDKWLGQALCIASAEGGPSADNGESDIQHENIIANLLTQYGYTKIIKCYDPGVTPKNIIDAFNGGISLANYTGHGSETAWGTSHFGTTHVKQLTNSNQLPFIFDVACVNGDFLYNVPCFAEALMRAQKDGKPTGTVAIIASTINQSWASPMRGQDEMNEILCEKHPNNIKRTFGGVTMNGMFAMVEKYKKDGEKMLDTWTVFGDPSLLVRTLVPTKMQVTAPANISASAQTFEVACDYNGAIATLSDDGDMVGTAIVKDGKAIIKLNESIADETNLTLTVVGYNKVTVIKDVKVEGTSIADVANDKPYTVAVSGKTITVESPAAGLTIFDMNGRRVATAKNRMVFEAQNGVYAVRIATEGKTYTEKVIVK

Chain of histidine-tagged monomeric RgpA (rRgpAH) (P28784 228-658, tags or fused parts left off): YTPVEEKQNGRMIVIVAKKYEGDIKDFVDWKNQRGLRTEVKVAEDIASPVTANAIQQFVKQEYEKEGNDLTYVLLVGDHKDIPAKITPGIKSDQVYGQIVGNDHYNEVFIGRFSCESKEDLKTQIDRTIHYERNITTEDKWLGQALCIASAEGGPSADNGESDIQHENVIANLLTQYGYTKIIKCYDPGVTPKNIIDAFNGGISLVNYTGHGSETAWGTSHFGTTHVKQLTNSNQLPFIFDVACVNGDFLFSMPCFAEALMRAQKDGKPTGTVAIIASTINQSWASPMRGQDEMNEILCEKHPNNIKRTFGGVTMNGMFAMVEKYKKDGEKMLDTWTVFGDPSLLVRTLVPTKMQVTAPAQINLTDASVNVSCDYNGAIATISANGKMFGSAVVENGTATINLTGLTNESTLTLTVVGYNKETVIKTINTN

Binder	Ki [1] [nM]	Ki [2] [nM]
B1	13	15
B2	22	29
